This is an account of results in the Human Domainome abundance scans (Beltran et al. 2025).

First the molecules themselves.
B1: Formin-binding protein 4, residues 200 to 261; numbered along this chain, Q8N3X1 (parent)
chain: SGWQYDTQCSLAGVGIEMGDWQEVWDENTGCYYYWNTQTNEVTWELPQYLATQVQGLQHYQP

± gives the uncertainty stated by the source.

Variants of B1 are the subject of this data set. As to the kind of experiment: abundance fitness (aPCA) (normalised: wild type 0, dead -1); higher = more abundant; growth selection in yeast, the domain comes from the species named. Particulars: Homo sapiens.
As for SGWQYDTQCSLAGVGIEMGDWQEVWDENTGCYYYWNCQTNEVTWELPQYLATQVQGLQHYQP, the abundance fitness was found to be 0.089 ± 0.11. In the case of SGWQYDTQCSLAGVGIEMGDWQEVWDENTGCYYYWNNQTNEVTWELPQYLATQVQGLQHYQP it was -0.166 ± 0.1.

Turning to SGWQYDTQCSLAGVGIEMGDWQEVWDENTGCYYYWNFQTNEVTWELPQYLATQVQGLQHYQP, the abundance fitness was -0.151 ± 0.082. Next, SGWQYDTQCSLAGVGIEMGDWQEVWDENTGCYYYWNAQTNEVTWELPQYLATQVQGLQHYQP: 0.061 ± 0.067; SGWQYDTQCSLAGVGIEMGDWQEVWDENTGCYYYWNHQTNEVTWELPQYLATQVQGLQHYQP: -0.009 ± 0.12. Next, SGWQYDTQCSLAGVGIEMGDWQEVWDENTGCYYYWNLQTNEVTWELPQYLATQVQGLQHYQP: -0.133 ± 0.062; SGWQYDTQCSLAGVGIEMGDWQEVWDENTGCYYYWNKQTNEVTWELPQYLATQVQGLQHYQP: 0.09 ± 0.094. In the case of SGWQYDTQCSLAGVGIEMGDWQEVWDENTGCYYYWNGQTNEVTWELPQYLATQVQGLQHYQP it was -0.135 ± 0.07. SGWQYDTQCSLAGVGIEMGDWQEVWDENTGCYYYWNDQTNEVTWELPQYLATQVQGLQHYQP: the abundance fitness is -0.171 ± 0.11. In the case of SGWQYDTQCSLAGVGIEMGDWQEVWDENTGCYYYWYTQTNEVTWELPQYLATQVQGLQHYQP it was -0.961 ± 0.29. Next, SGWQYDTQCSLAGVGIEMGDWQEVWDENTGCYYYWPTQTNEVTWELPQYLATQVQGLQHYQP: -0.897 ± 0.15. In the case of SGWQYDTQCSLAGVGIEMGDWQEVWDENTGCYYYWDTQTNEVTWELPQYLATQVQGLQHYQP it was -0.612 ± 0.17. Turning to SGWQYDTQCSLAGVGIEMGDWQEVWDENTGCYYYWLTQTNEVTWELPQYLATQVQGLQHYQP, the abundance fitness is -0.861 ± 0.094. Next, SGWQYDTQCSLAGVGIEMGDWQEVWDENTGCYYYWATQTNEVTWELPQYLATQVQGLQHYQP: -0.645 ± 0.12; SGWQYDTQCSLAGVGIEMGDWQEVWDENTGCYYYWTTQTNEVTWELPQYLATQVQGLQHYQP: -0.993 ± 0.14. Take SGWQYDTQCSLAGVGIEMGDWQEVWDENTGCYYYWVTQTNEVTWELPQYLATQVQGLQHYQP: the abundance fitness is -1.02 ± 0.16.

Consider SGWQYDTQCSLAGVGIEMGDWQEVWDENTGCYYYWGTQTNEVTWELPQYLATQVQGLQHYQP, for which the abundance fitness is -0.64 ± 0.098. Take SGWQYDTQCSLAGVGIEMGDWQEVWDENTGCYYYWRTQTNEVTWELPQYLATQVQGLQHYQP: the abundance fitness was -0.657 ± 0.081. In the case of SGWQYDTQCSLAGVGIEMGDWQEVWDENTGCYYYWETQTNEVTWELPQYLATQVQGLQHYQP it was -0.287 ± 0.11; in that of SGWQYDTQCSLAGVGIEMGDWQEVWDENTGCYYYWMTQTNEVTWELPQYLATQVQGLQHYQP, -0.603 ± 0.12. In the case of SGWQYDTQCSLAGVGIEMGDWQEVWDENTGCYYYWWTQTNEVTWELPQYLATQVQGLQHYQP it was -0.814 ± 0.11; in that of SGWQYDTQCSLAGVGIEMGDWQEVWDENTGCYYYWFTQTNEVTWELPQYLATQVQGLQHYQP, -0.744 ± 0.16.

As for SGWQYDTQCSLAGVGIEMGDWQEVWDENTGCYYYWITQTNEVTWELPQYLATQVQGLQHYQP, the abundance fitness is -1.13 ± 0.31. With SGWQYDTQCSLAGVGIEMGDWQEVWDENTGCYYYWSTQTNEVTWELPQYLATQVQGLQHYQP, the abundance fitness was -0.553 ± 0.084. Next, SGWQYDTQCSLAGVGIEMGDWQEVWDENTGCYYYWCTQTNEVTWELPQYLATQVQGLQHYQP: -0.236 ± 0.11; SGWQYDTQCSLAGVGIEMGDWQEVWDENTGCYYYWQTQTNEVTWELPQYLATQVQGLQHYQP: -0.121 ± 0.1. Next, SGWQYDTQCSLAGVGIEMGDWQEVWDENTGCYYYWKTQTNEVTWELPQYLATQVQGLQHYQP: -0.663 ± 0.13; SGWQYDTQCSLAGVGIEMGDWQEVWDENTGCYYYGNTQTNEVTWELPQYLATQVQGLQHYQP: -0.297 ± 0.058; SGWQYDTQCSLAGVGIEMGDWQEVWDENTGCYYYTNTQTNEVTWELPQYLATQVQGLQHYQP: 0.172 ± 0.09. In the case of SGWQYDTQCSLAGVGIEMGDWQEVWDENTGCYYYLNTQTNEVTWELPQYLATQVQGLQHYQP it was -0.112 ± 0.058; in that of SGWQYDTQCSLAGVGIEMGDWQEVWDENTGCYYYHNTQTNEVTWELPQYLATQVQGLQHYQP, 0.166 ± 0.25. On to SGWQYDTQCSLAGVGIEMGDWQEVWDENTGCYYYFNTQTNEVTWELPQYLATQVQGLQHYQP, for which the abundance fitness amounted to 0.112 ± 0.2. Next, SGWQYDTQCSLAGVGIEMGDWQEVWDENTGCYYYDNTQTNEVTWELPQYLATQVQGLQHYQP: -0.159 ± 0.19. In the case of SGWQYDTQCSLAGVGIEMGDWQEVWDENTGCYYYYNTQTNEVTWELPQYLATQVQGLQHYQP it was -0.271 ± 0.36; in that of SGWQYDTQCSLAGVGIEMGDWQEVWDENTGCYYYSNTQTNEVTWELPQYLATQVQGLQHYQP, 0.066 ± 0.075; in that of SGWQYDTQCSLAGVGIEMGDWQEVWDENTGCYYYKNTQTNEVTWELPQYLATQVQGLQHYQP, 0.355 ± 0.09. In the case of SGWQYDTQCSLAGVGIEMGDWQEVWDENTGCYYYMNTQTNEVTWELPQYLATQVQGLQHYQP it was -0.189 ± 0.085; in that of SGWQYDTQCSLAGVGIEMGDWQEVWDENTGCYYYINTQTNEVTWELPQYLATQVQGLQHYQP, 0.09 ± 0.22. Regarding SGWQYDTQCSLAGVGIEMGDWQEVWDENTGCYYYPNTQTNEVTWELPQYLATQVQGLQHYQP, the abundance fitness was -1.04 ± 0.19. Next, SGWQYDTQCSLAGVGIEMGDWQEVWDENTGCYYYVNTQTNEVTWELPQYLATQVQGLQHYQP: -0.104 ± 0.057; SGWQYDTQCSLAGVGIEMGDWQEVWDENTGCYYYANTQTNEVTWELPQYLATQVQGLQHYQP: 0.196 ± 0.054. In the case of SGWQYDTQCSLAGVGIEMGDWQEVWDENTGCYYYENTQTNEVTWELPQYLATQVQGLQHYQP it was 0.328 ± 0.076; in that of SGWQYDTQCSLAGVGIEMGDWQEVWDENTGCYYYRNTQTNEVTWELPQYLATQVQGLQHYQP, 0.184 ± 0.059.
